In PMC3950706, “SUMOylation of the polycomb group protein L3MBTL2 facilitates repression of its target genes” (Nucleic Acids Research, 2013):
Where no end group is shown, it is not given here. Me3 = tri-methylation (trimethyl-lysine); Me2 = di-methylation (dimethyl-lysine)

Columns and labels:
Details in all cases: both partners purified
[1] = target: T1, recombinant full-length His-L3MBTL2 (human, UniProt Q969R5 1-705); experiment: pull-down; histone peptides immobilised by a C-terminal cysteine on SulfoLink Coupling Resin; recombinant His-tagged proteins in 25 mM Tris-HCl pH 8, 150 mM NaCl, 2 mM EDTA, 0.5% NP 40, 1 h at 4°C (time course 5-60 min); bound protein detected by anti-His western blot; for SUMOylated L3MBTL2 the in vitro SUMOylation reaction was used
T1 construct: L3MBTL2 (Lethal(3) malignant brain tumour like 2), human, full length; also called 6xHis-L3MBTL2; His-L2; source: bacterially expressed, recombinant

[2] = target: T2, 3xFLAG-L3MBTL2 K675/700R mutant (human, UniProt Q969R5 1-705, K675/700R | K675/700R); experiment: pull-down; histone peptides immobilised on resin; 3xFLAG-L3MBTL2 immunoprecipitated from N-ethylmaleimide-treated nuclear extracts of stably transfected HEK293 cells and then incubated with the peptides; bound protein detected by anti-FLAG western blot
T2 construct: L3MBTL2, human, with K675R and K700R; Associated proteins may be present after the immunoprecipitation; also called SUMOylation-defective L3MBTL2; K/R; source: HEK293, stably transfected, immunoprecipitated from N-ethylmaleimide-treated nuclear extracts

wild-type 3xFLAG-L3MBTL2 = target: T3, wild-type 3xFLAG-L3MBTL2 (human, UniProt Q969R5 1-705); experiment: as above
T3 construct: L3MBTL2, human, wild type; The cellular wild-type protein is partly SUMOylated (SUMO2/3 at K675 and K700); Associated proteins may be present after the immunoprecipitation; also called FLAG-L3MBTL2 WT; 3xFLAG-L3MBTL2 WT; source: HEK293, stably transfected, immunoprecipitated from N-ethylmaleimide-treated nuclear extracts

[3] = target: T4, 4xMBT-repeat domain of L3MBTL2 (human, UniProt Q969R5 170-619); experiment: pull-down; histone peptides immobilised by a C-terminal cysteine on SulfoLink Coupling Resin; recombinant His-tagged proteins in 25 mM Tris-HCl pH 8, 150 mM NaCl, 2 mM EDTA, 0.5% NP 40, 1 h at 4°C (time course 5-60 min); bound protein detected by anti-His western blot; for SUMOylated L3MBTL2 the in vitro SUMOylation reaction was used
T4 construct: L3MBTL2, human, isolated 4xMBT-repeat domain, aa 170-619; also called His-4xMBT

Measured: binding result

T2 sequence (Q969R5 other isoform, or with tags, fused parts or gaps K675/700R | K675/700R | K675/700R | K675/700R | mutant): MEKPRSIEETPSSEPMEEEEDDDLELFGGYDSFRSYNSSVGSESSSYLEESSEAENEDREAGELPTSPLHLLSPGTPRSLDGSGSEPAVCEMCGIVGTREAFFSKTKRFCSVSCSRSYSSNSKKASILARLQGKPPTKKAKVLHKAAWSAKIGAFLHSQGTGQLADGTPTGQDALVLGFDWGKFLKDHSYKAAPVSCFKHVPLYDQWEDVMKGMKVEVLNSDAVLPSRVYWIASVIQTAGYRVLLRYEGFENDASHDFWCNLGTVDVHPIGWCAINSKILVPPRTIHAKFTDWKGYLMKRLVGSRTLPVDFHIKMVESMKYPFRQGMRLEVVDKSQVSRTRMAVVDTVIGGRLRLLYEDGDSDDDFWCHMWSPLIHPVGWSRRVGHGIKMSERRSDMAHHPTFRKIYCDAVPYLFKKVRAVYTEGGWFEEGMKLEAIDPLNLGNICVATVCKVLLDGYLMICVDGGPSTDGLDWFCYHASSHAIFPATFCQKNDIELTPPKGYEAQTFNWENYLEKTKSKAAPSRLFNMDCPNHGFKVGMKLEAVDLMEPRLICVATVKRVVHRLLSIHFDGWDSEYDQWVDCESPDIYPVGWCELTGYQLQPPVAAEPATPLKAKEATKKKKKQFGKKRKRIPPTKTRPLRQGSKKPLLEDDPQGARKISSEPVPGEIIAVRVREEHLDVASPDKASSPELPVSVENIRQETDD
T1 sequence (Q969R5 whole entry): as the sequence (Q969R5 other isoform, or with tags, fused parts or gaps K675/700R | K675/700R | K675/700R | K675/700R | mutant) above, with R675K, R700K counted along it
T3 sequence (Q969R5 whole entry): as the sequence (Q969R5 other isoform, or with tags, fused parts or gaps K675/700R | K675/700R | K675/700R | K675/700R | mutant) above, with R675K, R700K counted along it
T4 sequence (Q969R5 170-619): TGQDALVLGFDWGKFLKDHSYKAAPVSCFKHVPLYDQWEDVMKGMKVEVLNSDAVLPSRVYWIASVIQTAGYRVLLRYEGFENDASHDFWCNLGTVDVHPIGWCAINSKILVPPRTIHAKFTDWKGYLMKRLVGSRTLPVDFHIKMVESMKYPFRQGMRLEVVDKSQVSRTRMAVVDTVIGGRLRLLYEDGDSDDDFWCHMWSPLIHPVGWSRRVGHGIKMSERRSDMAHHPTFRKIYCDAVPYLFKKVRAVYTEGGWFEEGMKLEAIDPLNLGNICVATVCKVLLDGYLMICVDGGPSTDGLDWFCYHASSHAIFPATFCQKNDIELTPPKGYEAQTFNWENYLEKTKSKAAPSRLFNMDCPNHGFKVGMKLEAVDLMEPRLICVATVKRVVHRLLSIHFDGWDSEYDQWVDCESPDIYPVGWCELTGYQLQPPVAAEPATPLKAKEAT

B1: histone H3 peptide (residues 1-15) di-methylated at K9 (peptide)
peptide: ARTKQTARKSTGGKAC
modifications: dimethyl-lysine at K9
notes: histone H3, residues 1-15; added C-terminal cysteine, by which the peptide was coupled to SulfoLink resin; also called H3K9me2
binds: [1] | [2] | wild-type 3xFLAG-L3MBTL2

B2: unmethylated histone H4 peptide (residues 16-25) (peptide)
peptide: KRHRKVLRDNC
notes: histone H4, residues 16-25; added C-terminal cysteine, by which the peptide was coupled to SulfoLink resin; also called H4K20
binds: [1] | [2] | wild-type 3xFLAG-L3MBTL2

B3: histone H3 peptide (residues 1-15) mono-methylated at K9 (peptide)
peptide: ARTKQTARKSTGGKAC
modifications: monomethyl-lysine at K9
notes: histone H3, residues 1-15; added C-terminal cysteine, by which the peptide was coupled to SulfoLink resin; also called H3K9me1
binds: [1] | [2] | wild-type 3xFLAG-L3MBTL2

B4: histone H4 peptide (residues 16-25) mono-methylated at K20 (peptide)
peptide: KRHRK(Me)VLRDNC
notes: histone H4, residues 16-25; added C-terminal cysteine, by which the peptide was coupled to SulfoLink resin; also called H4K20me1
binds: [1] | [2] | wild-type 3xFLAG-L3MBTL2

B5: histone H3 peptide (residues 1-15) tri-methylated at K9 (peptide)
peptide: ARTKQTARKSTGGKAC
modifications: trimethyl-lysine at K9
notes: histone H3, residues 1-15; added C-terminal cysteine, by which the peptide was coupled to SulfoLink resin; also called H3K9me3
binds: [1] | [2] | wild-type 3xFLAG-L3MBTL2

B6: histone H4 peptide (residues 16-25) di-methylated at K20 (peptide)
peptide: KRHRK(Me2)VLRDNC
notes: histone H4, residues 16-25; added C-terminal cysteine, by which the peptide was coupled to SulfoLink resin; also called H4K20me2
binds: all assays above

B7: histone H4 peptide (residues 16-25) tri-methylated at K20 (peptide)
peptide: KRHRK(Me3)VLRDNC
notes: histone H4, residues 16-25; added C-terminal cysteine, by which the peptide was coupled to SulfoLink resin; also called H4K20me3
binds: [1] | [2] | wild-type 3xFLAG-L3MBTL2

B8: unmethylated histone H3 peptide (residues 1-15) (peptide)
peptide: ARTKQTARKSTGGKAC
notes: histone H3, residues 1-15; added C-terminal cysteine, by which the peptide was coupled to SulfoLink resin
binds: [1] | [2] | wild-type 3xFLAG-L3MBTL2
